Source: the supplement of paper PMC10567573

B1: ZNF193 (parent)
chain: QCIECGKSFNRHCNLIRHQKIHTV
B2: LCOR (parent)
chain: PCAGSTSLSHSPGCSSTQGNGRPG

Variants of: B1
Assay: protein stability index of a GFP-peptide fusion (GPS, HEK-293T) (PSI 1-6); higher = more stable
Conditions: c terminus: a fixed tail appended
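Further: lentivirally expressed fusions sorted by FACS into six bins by GFP to DsRed ratio, PSI derived from sequencing read proportions per bin multiplied by bin number.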

Protein stability index: each site, then its substitutions
H22: K 2.41; E 2.63
V24: I 2.8
C2: R 1.72; L 1.63
K20: D 2.83; W 2.22
G6: L 1.97; M 2.11

Variants of: B2
Assay: as above
Conditions: c terminus: a fixed tail appended

Protein stability index of substitutions, site by site:
S7: K 4; W 3.05; D 4.82; F 2.72; T 3.19; Y 2.87; A 2.19; N 3.43; M 1.82; I 1.92; L 1.64; H 2.42
T6: E 5.02; Y 3.39; W 2.84; S 2.77; F 2.91; D 4.35; V 3.9; H 3.11; K 2.71
S5: I 1.61; Y 2.41; F 3.35; N 2.67; R 2.71; M 2.9; W 3.35; T 1.75; K 4.35; D 4.27; P 2.15; E 3.94; G 4.2
A3: M 3.63; T 3.06; Y 3.21; V 3.87; E 2.77; S 3.73; G 3.4; D 4.98; C 4.78; L 3.93; I 4.1; K 4.69; Q 4.08; H 4
G24: W 2.47; F 2.95; E 2.65; L 2.94; R 3.07; H 3.81; T 3.51; A 3.38; S 3.22; Y 2.61; N 3.87; P 3.42; V 2.68; I 3.09; Q 3.37; K 3.77; M 2.82; C 2.48
L8: G 4.25; P 4.24; V 3.58; F 3.91; T 4.15; N 4.15; C 4.55; Y 4.95; K 4.34; I 3.67; R 3.87
H10: K 4.86; Y 4.3; Q 4.94; S 4.29; I 3.89; A 4.02; T 4.4; D 4.89; E 5.05; P 3.37; C 2.72
G21: D 3.95; P 2.53; N 3.57; Q 3.36; F 1.98; S 2.81; T 2.1; H 2.31; K 3.79; Y 2.92; E 3.96; R 3.29; C 2.85; I 3.54
P23: D 4.15; E 3.39; K 3.78; N 3.79; W 2.44; V 3.39; S 3.44; L 3.24; F 2.46; H 3.88; M 2.98; R 3.22; T 3.34; C 3.45; A 3.78; Y 2.75; I 3.02; Q 2.03
C14: S 5.88; A 4.12; P 4.48; T 4.93; L 4.34; H 4.93; G 5.25; F 4.71; V 4.85; Q 5.14; Y 3.83; R 3.86; E 4.9
G19: R 2.32; N 2.94; Y 2.5; I 2.9; T 3.24; F 3.15; K 3.48; L 2.91; H 2.32; S 3.84; P 3.31; M 2.88; V 3.19; Q 3.64; A 3.65; C 2.56
T17: A 3.08; F 1.81; V 1.75; H 3.36; M 2.17; P 3.51; I 2.02; S 2.53; W 1.89; C 1.47; Y 2.28; K 3.44; N 2.29
N20: V 3.58; R 3.07; E 2.88; H 2.79; S 3.1; D 3.44; F 2.66; P 2.51; M 2.83; L 2.91; A 4.09; I 2.19; T 2.35
S11: Q 3.27; I 2.18; G 2.96; C 1.94; N 2.75; P 3.16; M 3.28; Y 2.9; H 3.3; A 2.63; D 4; K 2.81; V 2.86; E 3.73; W 2.74
S15: K 2.39; M 2.95; E 3.55; L 3.36; I 2.8; W 2.85; G 2.49; A 2.91; V 3.3; F 2.83; Y 2.92; Q 2.79; D 4.31
G4: R 4.25; F 1.98; A 2.7; M 2.92; I 2.28; Q 4.2; L 2.43; S 3.56; E 4.2; K 4.38; H 3.52; T 3.71; P 4.17
P1: F 3.04; D 4.08; K 4.35; N 4.33; E 3.77; I 3.48; A 2.61; H 2.48; R 3.63; C 4.16; S 3.12; Y 2.96; M 3.39
Q18: K 3.77; M 3.01; S 3.55; T 3.37; P 2.89; G 3.53; E 3.34; V 2.5; C 2.73; N 3.51; R 3.01
S9: K 3.62; M 3.48; D 4.12; Q 3.48; R 1.04; P 3.79; T 3; E 3.85; W 2.66; H 2.36; F 2.4; G 2.85; Y 1.89
P12: A 3.99; R 2.92; Q 3.02; H 3.9; S 3.55; Y 3.39; C 1.01; T 4.1; F 1.91; N 4.11; V 3.15; E 4.43; L 3.23; D 4.35; M 3.12; I 2.73; K 3.86; G 4.15
C2: L 4.76; A 2.92; I 2.92; H 4.99; V 4.04; S 3.28; T 3.63; F 3.99; N 4.74; W 4.09; Y 3.55; K 4.48; R 5.27
G13: Q 2.56; T 2.72; C 1.44; F 2.93; M 2.56; Y 2.53; R 3.6; N 3.61; S 3.46; D 3.23; K 3.39
R22: H 3.96; K 4.23; E 4.55; A 4.1; N 4.2; C 3.92; Q 3.98; I 3.97; Y 4.14; P 3.83; L 2.47; W 2.55; G 3.06; D 4.3; M 3.78; T 3.46
S16: H 2.21; N 3.53; K 3.37; P 4.1; A 3; Q 3.03; E 3.18; L 1.6; M 2.22; F 2.87; Y 2.02; G 3.74; D 4.05; R 4.34
